Experiment [1] deals with T1, his-tagged rhTLR4/MD2 (human, UniProt O00206 24-631; Q9Y6Y9 19-160).
T1 construct: Bought recombinant human complex (carrier free, R&D SYSTEMS), his-tagged; In the pull-down it was captured by anti-His antibody on Protein A/G agarose; in the ELISA it was coated on the plate; also called TLR4/MD2 complex; TRLR4/MD2
As to the kind of experiment: modified S100A9 ELISA, TLR4/MD2 coated on the plate, 2 ug/ml S100A9, absorbance at 450 nm. How it is done: Binding of S100A9 proteins to TLR4/MD2 was analysed by a modified S100A9-ELISA. Briefly, TLR4/MD2 was coupled to the wells of a 96-well plate and served as capturing molecule. After blocking of the unspecific binding sites by PBS/5% skim milk powder plates were washed three times. S100A9-wt or mutant S100A9 proteins were added at a concentration of 2 μg/ml each in the presence and absence of 100 μM Calcium and incubated for two hours at room temperature. Unbound S100A9 was removed by washing the plates for three times followed by the addition of a primary anti-S100A9-antibody (1 μg/ml, polyclonal, rabbit). After a washing step the secondary anti-rabbit-IgG-antibody coupled to HRP (1 μg/ml from Cell Signalling) was added. TMB was used as substrate for HRP to quantify binding by absorbance readings at 450 nm in an ELISA reader (Anthos Mirkosysteme).
On the technique in general: An ELISA detects its analyte on a solid surface through an enzyme-linked reagent.

In experiment [2] the test system is (S100A8/S100A9)2 tetramers. As to the kind of experiment: Formation of (S100A8/S100A9)2 tetramers after site directed mutagenesis. Details: species or system human. The settings on record: mutation in second calcium binding EF hand of S100A9. How it is done:
For the expression of recombinant (rec) proteins without additional peptide sequences, the cDNAs from wt S100A8, wt S100A9 and the S100A9 EF-hand mutants were cloned into the pET11/20 vector [50-NdeI; 30-BamHI]. […] Bacteria were grown at 37° C. in 2×YT for 24 h. Afterwards bacteria were harvested, lysed and the inclusion bodies (IB) prepared. The IB pellet was dissolved in 8 M urea buffer and to establish proper refolding samples were adjusted to pH 2.0-2.5 first by adding hydrochloric acid. After 60 min incubation at room temperature, samples were stepwise dialyzed to get adapted to pH 7.4 for refolding in the presence of 2 mM DTT. After centrifugation (10 min, 60,000 g, 4° C.) to pellet aggregated material, samples were further dialyzed and applied to anion exchange column and gel filtration chromatography. To prepare heterodimeric complexes the recombinant proteins were mixed 1:1 in equimolar concentrations first. Samples were stored as stock solutions at −20° C. Correct refolding and complex formation was assessed by SDS-PAGE, CD spectroscopy, MALDI-MS and ESI-MS.

The test system of experiment [3] is human monocytes. The experiment can be described thus: Stimulation of human monocytes, TNFα release quantified by ELISA. The format is cell-based. The settings on record: human monocytes stimulated for four hours; TNFα by ELISA; FIG. 1. From the text: Using standard techniques known in the art, the inventors expressed the individual human proteins S100A8 and S100A9 in recombinant form, and purified them. After generating homodimers and heterodimers, they analysed the properties of the complexes. FIG. 1 illustrates the stimulation of human monocytes for four hours with the indicated concentrations of (A) recombinant human S100A8, recombinant human S100A9 or human S100A8/S100A9, and (B) recombinant human S100A8/S100A9, recombinant human S100A8/S100A9 (N69A) or S100A8/S100A9 (E78A). TNFα released into the culture medium was quantified by means of ELISA.
Monocytes were isolated from human buffy coats by Ficoll-Paque and subsequent Percoll density centrifugation (Pharmacia, Freiburg, Germany) Cells were cultured in Teflon bags (Biofolie 25; Heraeus Instruments, Hanau, Germany) using McCoy's 5a medium supplemented with 15% fetal calf serum for 1 day before stimulation. Monocytes were incubated for 4 hours with different dosis of hS100A8, hS100A9, hS100A8/S100A9 or the modified proteins as indicated in the figures and TNF-α concentrations in supernatants were determined by ELISA (OptEIA, BD Biosciences, Germany).
Release of cytokine TNF-α was measured in the culture supernatants by ELISA (OptEIA, BD Biosciences). […]

Experiment [4] has as its target T1, his-tagged rhTLR4/MD2. The experiment can be described thus: pull-down on beads carrying TLR4/MD2, MALDI-TOF mass spectrometry of the eluate. The procedure:
Anti-His antibody (5 μL, 0.5 mg/mL, Invivogen) and his-tagged rhTLR4/MD2 (5 μL, 1 mg/mL, carrier free, R&D SYSTEMS) were mixed and coupled to Protein A/G Agarose (50 μl, Pierce, Thermo Scientific). Trypsin digested peptides of S100A9 were added for 3 h at 4° C. in the presence of 1 mM Calcium. After washing of the beads in HBS/1 mM Ca-buffer for three times bound peptidic fragments were eluted by addition of 10 mM TRIS/2 mM EDTA-buffer and analysed by ESI-QIT- and MALDI-TOF-mass spectrometry. Identical experiments were performed to analyze the binding of the chemical synthesized peptides of S100A9 (aa63-79), S100A8 (aa55-71) and the corresponding control peptides aa63-79 AS and aa55-71 A3.

T1 sequence (O00206 24-631 limits assumed, chain 1 of 2): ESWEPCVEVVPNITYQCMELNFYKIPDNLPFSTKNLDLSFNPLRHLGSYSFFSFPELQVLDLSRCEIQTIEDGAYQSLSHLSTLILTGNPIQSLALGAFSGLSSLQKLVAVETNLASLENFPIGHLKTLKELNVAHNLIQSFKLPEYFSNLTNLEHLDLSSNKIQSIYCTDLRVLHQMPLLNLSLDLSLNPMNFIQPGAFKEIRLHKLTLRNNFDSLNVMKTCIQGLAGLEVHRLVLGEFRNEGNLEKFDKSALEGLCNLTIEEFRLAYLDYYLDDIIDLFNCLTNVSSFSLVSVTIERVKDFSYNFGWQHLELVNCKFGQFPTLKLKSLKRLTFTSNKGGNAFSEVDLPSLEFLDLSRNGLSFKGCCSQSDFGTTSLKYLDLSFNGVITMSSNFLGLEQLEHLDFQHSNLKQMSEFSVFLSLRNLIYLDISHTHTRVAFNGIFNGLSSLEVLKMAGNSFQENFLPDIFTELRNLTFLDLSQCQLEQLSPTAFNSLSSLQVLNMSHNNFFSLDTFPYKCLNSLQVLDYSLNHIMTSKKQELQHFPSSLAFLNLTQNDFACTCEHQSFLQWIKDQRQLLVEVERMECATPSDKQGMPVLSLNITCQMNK
T1 sequence (Q9Y6Y9 19-160 limits assumed, chain 2 of 2): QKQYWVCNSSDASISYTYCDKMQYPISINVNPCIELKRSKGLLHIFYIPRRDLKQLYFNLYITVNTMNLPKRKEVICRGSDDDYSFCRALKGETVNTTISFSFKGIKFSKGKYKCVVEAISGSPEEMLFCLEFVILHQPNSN

B1: recombinant human S100A9 (wild type, homodimer) (ligand)
chain: MTCKMSQLERNIETIINTFHQYSVKLGHPDTLNQGEFKELVRKDLQNFLKKENKNEKVIEHIMEDLDTNADKQLSFEEFIMLMARLTWASHEKMHEGDEGPGHHHKPGLGEGTP
notes: Uniprot P06702; used as a homodimer; also called S100A9 wt; S100A9-wt
For the molecule B1, the binding result in experiment [1] is given as “binds”.

B2: S100A8/S100A9 (E78A): recombinant human S100A8/S100A9 with S100A9 EF hand II mutation E78A, prevents tetramer formation (protein)
chain 1: MLTELEKALNSIIDVYHKYSLIKGNFHAVYRDDLKKLLETECPQYIRKKGADVWFKELDINTDGAVNFQEFLILVIKMGVAAHKKSHEESHKE
chain 2: MTCKMSQLERNIETIINTFHQYSVKLGHPDTLNQGEFKELVRKDLQNFLKKENKNEKVIEHIMEDLDTNADKQLSFEAFIMLMARLTWASHEKMHEGDEGPGHHHKPGLGEGTP
In the case of B2, the tetramer formation entry in experiment [2] is “inhibition of tetramer formation”. In experiment [3], the “activation of monocytes (TNFα released into the culture medium)” value is reported as “activation of monocytes that is comparable to the activation caused by homodimers”.

B3: S100A8/S100A9 (N69A): recombinant human S100A8/S100A9 with S100A9 EF hand II mutation N69A, prevents tetramer formation (protein)
chain 1: MLTELEKALNSIIDVYHKYSLIKGNFHAVYRDDLKKLLETECPQYIRKKGADVWFKELDINTDGAVNFQEFLILVIKMGVAAHKKSHEESHKE
chain 2: MTCKMSQLERNIETIINTFHQYSVKLGHPDTLNQGEFKELVRKDLQNFLKKENKNEKVIEHIMEDLDTAADKQLSFEEFIMLMARLTWASHEKMHEGDEGPGHHHKPGLGEGTP
As to B3, the tetramer formation entry in experiment [2] is “inhibition of tetramer formation”. Further, the “activation of monocytes (TNFα released into the culture medium)” value in experiment [3] is “activation of monocytes that is comparable to the activation caused by homodimers”.

B4: control peptide 63-79 5A of S100A9 (E64A, D65A, K72A, Q73A, E77A) (peptide)
peptide: MAALDTNADAALSFAEF
notes: Chemically synthesized control peptide, molecular weight 1758 g/mol; Positions follow the numbering of full-length S100A9 ('nomenclature of S100A9 maintained'); also called 63-79 A5; 63-79 AS
On to B4, for which, in experiment [4], the binding result was “no binding”.

The values above are taken from patent US20150210768A1, “Methods and Compounds for Preventing, Treating and Diagnosing an Inflammatory Condition” (Westfaelische Wilhelms-Universitaet Muenster, priority 2012, published 2015).
